The text below walks through data of paper PMC9305820.

pKd: −log10 of the molar value.

For assay [1], the target named is Fluorescently labeled TGF-β1. In words: MST.
The target of assay [2] is Transforming growth factor-β1 (TGF-β1) dimer (UniProt P01137). In words: dynamic light scattering.
Assay [3] shares this target. The assay is described as follows: negative-stain electron microscopy.

Sequence of UniProt P01137 (P01137 279-390): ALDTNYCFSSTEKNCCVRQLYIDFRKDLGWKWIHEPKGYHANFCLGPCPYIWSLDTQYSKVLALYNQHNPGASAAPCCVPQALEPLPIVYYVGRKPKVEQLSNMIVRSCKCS

The term pKd denotes the Kd on a negative log10 scale, so that one unit is a factor of ten. High values mean a small Kd, low ones a large Kd. With “Bintrafusp alfa (from UniProt P37173 23-166)”, in assay [1], the pKd is 10.26. This substance had a stoichiometry N (BA per TGF-β1 dimer) in assay [2] of 1. In assay [3], this substance gave a stoichiometry N (TGF-β1 dimer per BA) of 1.
